Laboratory results taken from PMC11189471.

Legend:
[1] = molecular target: mouse IL-33 (residues 112-270) (mouse)
[2] = molecular target: mouse IL-33 (residues 112-270) (mouse); test: SPR; 1000-1200 RU ST2-Fc captured on a protein A/G-coated CM5 chip; mIL-33 (2 µM) alone or mixed with 2.5 µM HpARI2, HpARI2_CCP2/3 or HpARI2-LD flowed; 20 mM Tris-Cl pH 8.0, 150 mM NaCl, 1 mg/ml salmon sperm DNA, 0.02% Tween-20
[3] = molecular target: full-length HpARI2 (Alarmin Release Inhibitor, Heligmosomoides polygyrus bakeri) (Heligmosomoides polygyrus bakeri); test: SPR; 400-450 RU biotinylated HpARI2 captured on the chip; two-fold series (1000 nM to 15.62 nM) of hIL-33 or hIL-33:S158R flowed
[4] = molecular target: HpARI2-LD (full-length HpARI2 with residues 180-188 of the CCP3 loop deleted) (Heligmosomoides polygyrus bakeri); test: SPR; screening of HpARI2 variants for mIL-33 binding at one concentration (legend: HpARI2 concentration of 100 nM); same reagents and equipment as the kinetic SPR; n = 3
[5] = molecular target: HpARI2-LD (full-length HpARI2 with residues 180-188 of the CCP3 loop deleted) (Heligmosomoides polygyrus bakeri); test: SPR; biotinylated HpARI2 variant (300-400 RU) captured with the Biotin CAPture kit; two-fold series of IL-33 flowed at 40 µl/min; 25 °C; 20 mM Tris-Cl pH 8.0, 150 mM NaCl, 1 mM EDTA, 0.02% Tween-20, 1 mg/ml salmon sperm DNA; Langmuir fit
[6] = molecular target: HpARI2_CCP1/2 (HpARI2 lacking CCP3) (Heligmosomoides polygyrus bakeri); test: as above
[7] = molecular target: HpARI2_CCP2/3 (HpARI2 lacking CCP1) (Heligmosomoides polygyrus bakeri); test: as above
[8] = molecular target: full-length HpARI2 (Alarmin Release Inhibitor, Heligmosomoides polygyrus bakeri) (Heligmosomoides polygyrus bakeri); test: as above
[9] = molecular target: HpARI2_CCP2/3 (Heligmosomoides polygyrus bakeri); test: SPR; biotinylated HpARI2 variant (300-400 RU) captured on a Biotin CAPture chip, two-fold series of mIL-33 (or mIL-33 R159A) injected; Biacore T200, 25 °C, 20 mM Tris-Cl pH 8.0, 150 mM NaCl, 1 mM EDTA, 0.02% Tween-20, 1 mg/ml salmon sperm DNA; Langmuir 1:1 fit

Substance: HpARI2-LD (full-length HpARI2 with residues 180-188 of the CCP3 loop deleted) (natural protein)
- protein concentration needed for the same inhibition of IL-5 and IL-13 release as wild-type HpARI2 (bone marrow-derived ILC2s) [1]: 100 fold
- percent reduction of mIL-33 binding to ST2-Fc at 2.5 µM HpARI2-LD [2]: 25%

Substance: human IL-33 (from UniProt O95760 1-270) (ligand)
- Kd [3]: 65 nM

Substance: human IL-33 S158R mutant (from UniProt O95760) (ligand)
- fold increase of HpARI2 binding against human IL-33 [3]: > 100 fold

Substance: mouse IL-33 (residues 112-270) (ligand)
- percent reduction of mIL-33 binding against HpARI2 [4]: 60%
- Kd [5]: 45 nM
- Kd [6]: 49 nM
- fold koff against full-length HpARI2 [6]: > 100 fold
- Kd [7]: 4 nM
- Kd [8]: 0.048 nM

Substance: mouse IL-33 R159A (ligand)
- Kd [9]: 3800 nM

Substance: mouse IL-33 R159A mutant (ligand)
- fold reduction in binding affinity against wild-type mIL-33 [7]: 1000 fold
